Measured values from US10144929B2, “Polypeptide inhibitors of Smad3 polypeptide activities” (Mayo Foundation for Medical Education and Research, priority 2016, dated 2018).

What was measured:
Type in all cases: cell-based
pSmad3 = target: T1, pSmad3 (Mus musculus, UniProt Q8BUN5); test: Nuclear import of pSmad3 (nuclear fractions Western, immunofluorescence) in AKR-2B cells; conditions: 90 minutes transduction, TGFβ 5 ng/mL 1 hour
T1 construct: endogenous in cells; host or cells: AKR-2B cells
Method: FIGS. 1A-C. SH3 domain of sorting nexin 9 (SNX9) specifically binds pSmad3 and prevents nuclear import. (A) Cartoon depicting domains in full length (FL) SNX9 and constructs used for GST pull down assays. Lysates from AKR-2B cells untreated (−) or stimulated (+) for 45 minutes with 5 ng/mL TGFβ were incubated with GST beads or the indicated fusion polypeptides immobilized on GST beads. Bound polypeptides were eluted and assessed by Western analysis for pSmad3 or pSmad2. Cell lysate reflects signal obtained from 10 μg total protein. (B) AKR-2B cells were transduced for 90 minutes with the indicated concentrations of the TAT-SNX9(SH3) fusion polypeptides. […] Quantitation of nuclear pSmads was performed with Image J software and represents the mean+/−sd of two experiments (Right). […] Quantitation of nuclear Smad3 from 30 cells in each of two experiments (Right).
(§1) FIGS. 3A-E. Inhibition of Smad3 signaling by a defined region of the SH3 domain in SNX9. […] (B) Nuclear fractions were prepared and assessed as in FIG. 1B following transduction with the indicated TAT-SNX9(SH3) fusion polypeptide (Left). Quantitation (mean+/−sd) of nuclear pSmad2 or pSmad3 from 2 experiments (Right). (C) Immunofluorescence of nuclear Smad3 was determined as in FIG. 1C from 30 cells in each of two experiments in the absence (−) or presence (+) of 5 ng/mL TGFβ and the indicated TAT-SNX9(SH3) fusion polypeptide (1.5 μM). […]

pSmad2 = target: T2, pSmad2 (Mus musculus, UniProt Q62432); test: Nuclear import of pSmad2 (nuclear fractions Western) in AKR-2B cells; conditions: 90 minutes transduction, TGFβ 5 ng/mL 1 hour
T2 construct: nuclear fractions were isolated, and Western blotted for pSmad2, pSmad3, or histone deacetylase 1 (HDAC); endogenous in cells; host or cells: AKR-2B cells
T2 sequence (Q62432 whole entry): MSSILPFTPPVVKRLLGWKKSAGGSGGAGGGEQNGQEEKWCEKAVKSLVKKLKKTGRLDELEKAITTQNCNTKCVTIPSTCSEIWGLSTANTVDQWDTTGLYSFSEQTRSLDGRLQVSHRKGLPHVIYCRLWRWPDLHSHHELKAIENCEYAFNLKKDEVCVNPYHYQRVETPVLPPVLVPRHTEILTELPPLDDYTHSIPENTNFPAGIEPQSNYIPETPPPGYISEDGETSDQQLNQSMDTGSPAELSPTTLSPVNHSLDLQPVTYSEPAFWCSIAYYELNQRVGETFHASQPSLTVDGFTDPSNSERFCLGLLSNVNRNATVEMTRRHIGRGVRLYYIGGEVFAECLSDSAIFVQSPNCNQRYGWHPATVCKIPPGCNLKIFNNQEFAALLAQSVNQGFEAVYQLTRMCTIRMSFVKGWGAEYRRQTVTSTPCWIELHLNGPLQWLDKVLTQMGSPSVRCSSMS
Method: FIGS. 1A-C. SH3 domain of sorting nexin 9 (SNX9) specifically binds pSmad3 and prevents nuclear import. (A) Cartoon depicting domains in full length (FL) SNX9 and constructs used for GST pull down assays. Lysates from AKR-2B cells untreated (−) or stimulated (+) for 45 minutes with 5 ng/mL TGFβ were incubated with GST beads or the indicated fusion polypeptides immobilized on GST beads. Bound polypeptides were eluted and assessed by Western analysis for pSmad3 or pSmad2. Cell lysate reflects signal obtained from 10 μg total protein. (B) AKR-2B cells were transduced for 90 minutes with the indicated concentrations of the TAT-SNX9(SH3) fusion polypeptides. Following washing and 1 hour TGFβ (5 ng/mL) treatment, nuclear fractions were isolated, and Western blotted for pSmad2, pSmad3, or histone deacetylase 1 (HDAC) (Left). Quantitation of nuclear pSmads was performed with Image J software and represents the mean+/−sd of two experiments (Right). (C) AKR-2B cells were transduced as in (B) with TAT-SH3 or TAT-LC (1.8 μM) and treated+/−TGFβ (5 ng/mL) for 1 hour. Immunofluorescence for Smad3 or the HA-tagged TAT-SNX9(SH3) fusion polypeptide was performed, and nuclei were stained with DAPI (Left panels). Quantitation of nuclear Smad3 from 30 cells in each of two experiments (Right).
AKR-2B cells were grown in DMEM supplemented with 10% fetal bovine serum (FBS). […]

Smad3 (3TP) reporter = test: Smad3 (3TP) luciferase reporter assay in AKR-2B cells; conditions: 1.5 μM polypeptide, 5 ng/mL TGFβ, 12 hours
Method: (§2) FIGS. 2A-C. TAT-SH3 inhibits Smad3-dependent responses. (A) AKR-2B cells were transiently transfected with a Smad3 (3TP), Smad2 (ARE), or Smad1/5/8 (BRE) reporter construct, and luciferase activity determined following 12 hours incubation in the absence (−) or presence (+) of the indicated ligand (5 ng/mL TGFβ; 10 ng/mL BMP4) or TAT-SNX9(SH3) fusion polypeptide (1.5 μM). Data represent the mean+/−SEM of three experiments. (B) RT-PCR analysis of Smad3 (PAI-1 and CTGF) and Smad2 (MMP2) responsive gene following 24 hour treatment of AKR-2B cells with the indicated concentration of TAT-SNX9(SH3) fusion polypeptide or 5 ng/mL TGFβ. Loading was verified by GAPDH expression. (C) Soft agar colony formation was performed following seven days growth in the presence (+) or absence (−) of TGFβ (10 ng/mL) or the indicated TAT-SNX9(SH3) fusion polypeptide (1.5 μM). Data reflects the mean+/−sd of triplicate wells from three experiments.
(§3) For luciferase assays, 2×10^5 cells were plated in six well plates containing 10% FBS/DMEM. […] Cells were harvested in 200 μL of reporter lysis buffer (Promega, Madison, Wis.), and luciferase activity was determined in a Berthold Lumat 9507 luminometer after normalization for transfection efficiency with β-galactosidase.

Smad2 (ARE) reporter = test: Smad2 (ARE) luciferase reporter assay in AKR-2B cells; conditions: 1.5 μM polypeptide, 5 ng/mL TGFβ, 12 hours
Method: as §2, §3

Smad1/5/8 (BRE) reporter = test: Smad1/5/8 BMP (BRE) luciferase reporter assay in AKR-2B cells; conditions: 1.5 μM polypeptide, 10 ng/mL BMP4, 12 hours
Method: as §2
FIGS. 4A-E. A point mutant of TAT-SH3-2 abolishes the inhibitory action on Smad3 responses. […] (E) AKR-2B cells were transiently transfected with a BMP (BRE), EGF (SRE), or PDGF (MMP-1) reporter construct and luciferase activity determined following 12 hour incubation in the absence (−) or presence (+) of the indicated ligand (10 ng/mL BMP4, EGF, or PDGF), inhibitor (10 μM Dorsomophin; 3 μM Lapatinib; 2 μM CP868) or TAT-SNX9(SH3) fusion polypeptide (1.5 μM). […]

[1] = test system: Smad3 targets (PAI-1, CTGF, Smad7); test: RT-PCR/qPCR/Western of Smad3 responsive genes in AKR-2B cells; conditions: 5 ng/mL TGFβ, 24 hours
Method: as §2, with “Data reflects the mean+/−sd of triplicate wells from three experiments.” left out
as §1

[2] = test system: Smad2 targets (MMP2, Goosecoid, Furin, MixL); test: RT-PCR/qPCR of Smad2 responsive genes in AKR-2B cells; conditions: 5 ng/mL TGFβ, 24 hours
Method: as §2, with “Data reflects the mean+/−sd of triplicate wells from three experiments.” left out
as §1

AKR-2B cells = test: Soft agar colony formation (anchorage-independent growth, AIG); conditions: 1.5 μM polypeptide, TGFβ 10 ng/mL, seven days
Method: as §2, with “Data reflects the mean+/−sd of triplicate wells from three experiments.” left out
as §1

T1 sequence (Q8BUN5 whole entry): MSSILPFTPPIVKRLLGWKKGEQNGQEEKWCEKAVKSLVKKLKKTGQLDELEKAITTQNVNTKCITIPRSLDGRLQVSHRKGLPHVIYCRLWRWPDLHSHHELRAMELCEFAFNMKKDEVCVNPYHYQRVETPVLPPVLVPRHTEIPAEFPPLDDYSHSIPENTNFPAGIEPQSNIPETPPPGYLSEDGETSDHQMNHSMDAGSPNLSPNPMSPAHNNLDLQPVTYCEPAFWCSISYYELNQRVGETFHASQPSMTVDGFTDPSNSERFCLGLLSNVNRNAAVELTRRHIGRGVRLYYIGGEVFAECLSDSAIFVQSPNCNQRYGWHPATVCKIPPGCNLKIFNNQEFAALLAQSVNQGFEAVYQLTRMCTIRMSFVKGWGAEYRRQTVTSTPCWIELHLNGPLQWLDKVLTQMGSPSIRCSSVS

B1: TAT-SH3: TAT-SNX9(SH3) fusion polypeptide containing the full length SH3 domain (amino acids 1 to 62) (protein)
chain: MATKARVMYDFAAEPGNNELTVNEGEIITITNPDVGGGWLEGRNIKGERGLVPTDYVEILPS
modifications: left off: small tags and cut ends
nuclear import of pSmad3 (pSmad3): inhibited nuclear import of pSmad3 in a dose-dependent manner
nuclear import of pSmad2 (pSmad2): no effect
Smad3-dependent luciferase activity inhibited (Smad3 (3TP) reporter): about 70%
Smad2 signaling (luciferase) (Smad2 (ARE) reporter): no discernible effect
Smad1/5/8 (i.e., BMP) signaling (luciferase) (Smad1/5/8 (BRE) reporter): no discernible effect
TGFβ induction of Smad3 targets / Smad3-dependent transcriptional responses [1]: inhibited
induction of Smad2 targets [2]: unaffected
TGFβ-stimulated anchorage-independent growth in soft agar (AIG) (AKR-2B cells): inhibited

B2: TAT-LC: SNX9 LC (low complexity) domain fused to cell penetrating TAT polypeptide; negative control (protein)
chain: DGKDQFSCGNSVADQAFLDSLSASTAQASSSAASNNHQVGSGNDPWSAWSASKSGNWESSEGWGAQPEGAGAQRNTNTPNNWDTAFGHPQAYQGPATGDDDDWDEDWDGPKSSSYFKDSESADAGGAQRGNSRASSSSMKI
modifications: left off: a dimerising Fc or GST
nuclear import of pSmad3 (pSmad3): ineffective in modulating nuclear translocation
TGFβ induction of Smad3 targets / Smad3-dependent transcriptional responses [1]: inert
TGFβ-stimulated anchorage-independent growth in soft agar (AIG) (AKR-2B cells): inert
